Test results taken from the DeepSol protein solubility set.

Assay: soluble on expression in E. coli; label from the status in PepcDB or PDB records

Sequence | soluble on expression in E. coli
METIWIPHLHTALAYMHERFLELFILPDSCPSKKLEELQQKEGN | not soluble
NILKALLPTSTAGSLPKPAWLAEPETLWSPWKLQGEELTEGKHDALRLSLQDQQQAGIDIVSDGEQTRQHFVTTFIEHLNGVDFEKRKTVKIRDRYDASVPTVVGPVSRQKSVFVEDAKFLRQQTKQPIKWALPGPMTMIDTLYDDHYKSREKLAWEFAKILNQEAKELEAAGVDIIQFDEPAFNVFFDEVNDWGIACLERAIEGLNCETAVHICYGYGIKANTDWKKTLGSEWRQYEEAFPKLQKSNIDIISLECHNSHVPMELLELIRGKKVMVGAIDVASNTIETPEEVANTLRKALKFVDADKLYPCTNCGMAPLSHQVARGKLNALSAGAEIVRRELST | not soluble
SLTTENQNPLVLDKNEEISQQKADDIRLQLRQEPEVKRLAQQIDVKNQMELLEYGKEPAVEISKFSDRILGMMKTTSVTDSGTMLTQLGKIMDRFDKNDFDEPKGLMAKIFKRGGSMIEKIFKKYQTLGGEIEKIHVEISKYKDEMTKTNYTLDEMYENNIKYYMELEKYVVAGQMKLEEMQSILPSYEEKAASGNQLAQMQLDTLRNGIQALEERVYDLDMARMVALQTAPQIRLLQRGNAKLIGKINSAFIITIPIFKNGIIQAVTVKRQKLVADSMSELDRRTNEMLKRNAENISSQSVEIARMAGRPSIDIETIESSWNTIVSGMQETKQIEEENKRLREDGARRIAQLQDNIKKAALQQ | soluble
PTDILEHVLLPVATEDDALATVTALEPYEPEQVTALHVVEKGEGVPDKTPVAQSEEVAAESYAAVRTVFPDADDHTAYSRNVVEAIFHAADEVGASAIAYRSRGGGRLMQFLSGDLSLKLVTNAAIPVIALPRADS | not soluble
PKGSIIVSTRAPVGYVAIVDEDTTFNQGCKGLIPKSSEINTEFYCYYLLLIKRKLEQLSGGSTFKELPKKSLEELLIPLLPLPEQQKIAEILSTV | soluble
MEGRLTVVPTPIGNLEDITLRALKVLREADLILAEDTRTSSVLLHHYDIHCPLQSHHKFNEHRTAKSLAERISGGERIALISDAGTPGISDPGFLLVRACAELGVVVECLPGPTALIPALVASGLPADRFVFEGFLPVKKGRQTRMKELAEELRTMIFYESPHRVLRTLTQFVETFGLDRPAAACRELSKLHEEVIRGTLAELLAHFENHPPRGEFVLIVGGAAPKGRKEEKQ | not soluble
MAHHHHHHMDCNTGMQLGQQFSKDVTMMHGGVPMSGAMSEQDALMVSAQVGGASPMMAAQWAQNFQQQQAMQAMRQQHEMEQAFQNSQQQQHAAVAQSGQMLGMAGPQQQQFMVQQQQQASMMNAAMMSQGMMTANMGFGMMMPRTQYQPLPNLSVLQPNQQQQQQQQLVNLAPAVQDSAWADQLSQQQWSTDYSQVQTFSAPGMEDKTVEERIKDSEFYKFMDQVKNKEVLIDEEKGELVQGPGPEVGVPEDAEYLRHWAEMEGLNMPEGVFQPPPPASAMMTPENGDPDTYIKEMDMAENDVEDWAQEYAEMQERLQKVTNNTDYPFEPNNPYMFHDFPFDEGMEMLQLGNLAEAALAFEAVCHKDSSNEKAWQILGTTQAENEKDGLAIIALNNARKLNIRNLEVHAALSVSHTNERNADAAMDSLKAWLVNHPEYEQLASVSIPPDAELDVQETFFFADPSRMREARTLYEAAIEMNPSDSQLFTNLGVLHNVAHEFDEAAECFRKAVALHPDDPKMWNKLGATLANGGHPDQALEAYNRALDINPGYVRAMYNMAVAYSNMSQYNMAARQIVKAIASQQGGTKPSGEGSIMATRNMWDLLRMTLNLMDRDDLVQLTYNEQLEPFVKEFGLEGHV | not soluble
MGSDKIHHHHHHMMYKHVALLVRQDDMSHEEFVDYWQANHTPIAKDIEGVVRYQQVLPTEPAHAEFDGLAELYFETLEDLHEALGSPGSRDYDPTKEIAAKAREDVNNFLAVEERPRIIGEEIVQKDEVDGDTDGLYKHSAFLVRQDDMTHEEFVDYWQTNHTPIAREIEGVVKYNTVIPTDPENAEFDGVAELYFDDIEKLYDALGSEGLRDYAPDRGKAKAAREDVNNFLAIDERPRFIGQEQLVKDEG | not soluble
MSLEDKDLRSIQEVRNLIESANKAQKELAAMSQQQIDTIVKAIADAGYGAREKLAKMAHEETGFGIWQDKVIKNVFASKHVYNYIKDMKTIGMLKEDNEKKVMEVAVPLGVVAGLIPSTNPTSTVIYKTLISIKAGNSIVFSPHPNALKAILETVRIISEAAEKAGCPKGAISCMTVPTIQGTDQLMKHKDTAVILATGGSAMVKAAYSSGTPAIGVGPGNGPAFIERSANIPRAVKHILDSKTFDNGTICASEQSVVVERVNKEAVIAEFRKQGAHFLSDAEAVQLGKFILRPNGSMNPAIVGKSVQHIANLAGLTVPADARVLIAEETKVGAKIPYSREKLAPILAFYTAETWQEACELSMDILYHEGAGHTLIIHSEDKEIIREFALKKPVSRLLVNTPGALGGIGATTNLVPALTLGCGAVGGSSSSDNIGPENLFNIRRIATGVLELEDIRKEENQATSELPVDADALIQSLVEKVLAELKEGHHHHHH | soluble
MGSDKIHHHHHHMNRESMRPQFAPARSPSDVAMISRHIEAGVHRLPRAPHHRVMVHASAATRSYCNQVGRYFVRRAGDIDLVPAGEEGGFEAETAFDTVEIVLPPALMERVAAELGGRALVSRLDTRHLLRDQRIEHLARALQNDLDAGAPSGSLFADSIGAALAVRLLGVDDDIDIERTNRLSDTQLKRVLEHIEAALHEPLSIDRLARVAGASSSHLRTWFKVATGVTLHRYVLRRRVERARLLLERGDLSTSEVAELTGFAHQSHLAHWMRREIGQTPRDVRRARPPK | not soluble
MGSDKIHHHHHHMTDWHFYEPARGHALRHDPLNAIVAPRPIGWISTISSDGVRNLAPYSFFNLFSYKPPIVGFCSLGAKDSLANARDTGEFVWNLATRPLVEAMNASAAMVPAHVDEFELAKLETLPSAKVRPARVAASPVQFECVVTQIVQLEAQGGAALPAWLVLGEAVAIHIDRQLITNGVYQTAQARPILRGGGPADYFEIGAGQLFTLERPGD | not soluble
MLVLGSGGARGYAHIGVIEELEARGYEITCIAGCSMGSVIGGIYAAGKLREYREWVESLDYLDVLRLLDVSFRLGAIRGERVFGKIHEILGEVNIEDLSIPYTAVATDLTNQQEIWFQEGCLHQAMRASAAIPSLFTPVMQGSRMLVDGGLLNPLPIVPVV | soluble
MYNISFTPDRPLTYHLEDDQSLARLSLVPGRGGLVTEWTVQGQPILYFDRERFQDPSLSVRGGIPILFPICGNLPQDQFNHAGKSYRLKQHGFARDLPWEVIGQQTQDNARLDLRLSHNDATLEAFPFAFELVFSYQLQGHSLRIEQRIANLGDQRMPFSLGFHPYFFCREKLGITLAIPANDYLDQKTGDCHGYDGQLNLTSPELDLAFTQISQPRAHFIDPDRNLKIEVSFSELYQTLVLWTVAGKDYLCLEPWSGPRNALNSGEQLAWVEPYSSRSAWVNFQVSTELEHHHHHH | soluble
MELKKLMGHISIIPDYRQAWKMEHKLSDILLLTICAVISGAEGWEDIEDFGETHPDFLKQYGDFENGIPVHDTIARVVSCISPAKFHECFINWMRDCHSSDDKDVIAIDGKTLRHSYDKSRRRGAIHVISAFSTMHSLVIGQIKTDEKSNEITAIPELLNMLDIKGKIITTDAMGCQKDIAEKIQKQGGDYLFAVKGNQGRLNKAFEEKFPLKELNNPAHDSYAMSEKSHGREEIRLHIVCDVPDELIDFTFEWKGLKKLCVAVSFRSIIAEQKKELEMTVRYYISSADLTAEKFATAIRNHWHVENKLHWRLDVVMNEDDCKIRRGNAAELFSGIRHIAINILTNDKVFKAGLRRKMRKAAMDRNYLASVLTGSGLS | soluble
MGSDKIHHHHHHFLDELPDNRTELNSEQKIAKMLVSAYPEGSANELFELYSDNTDDNSARYSYYKLSEEECYNWKDTQEEYQDTPTNLWETHYIAIASANMALEEIEKRGNPESLMPQRGEALVCRAYNHFVLANIFCNAYNTHASQELGIPYMTKVETTVQPQYGRGTLQETYEKIEKDLLDGMALISDDSYSVPKYHFTRKAAYAFAARFYLYYMKPDFSNCDEVIKYADRVLGSDPAAELRDWEALGKLSANDNVQPDAYIASTSKANLLIGSTVSNWGIILSNYMTGKRYLHNKLIASYETSRSSGLWGIPDRMYMQPFTTSGYECSMLRKGGYYAGDYLYYMPVIFSTDETLLCRAEAYTLKKNYPMAAADLTTWEKAYTSNKQTLTPGMINEYYDKMDYYNPTQNPTPKKKLQPDFTIESGIQENFIHCILHMRRIATLHEGLRWPDIKRYGIVIYRRSIANNNIVVTDEMPVNDARRAMQIPKSVVLAGMQPNPRTEN | not soluble
TSEEYYKRKKQIKKLMSDQYAFLDLHGFTLHEDLYFEGIYEGFFFRVCPATEYIKKGYAGKKAIEYVIIESFYRFASEATDMDREVKMSGEYNFGDVHFENHCAGFVPKDWKNPDFKANFDALITIFEREGLLPITKNDWESTFGQHSKKAKDASRKNPQR | not soluble
MNKPLTPSTYIRNLNVGILRKLSDFIDPQEGWKKLAVAIKKPSGDDRYNQFHIRRFEALLQTGKSPTCELLFDWGTTNCTVGDLVDLLVQIELFAPATLLLPDAVPQTVKSLPP | soluble
AFVQEPLPFDPGALEPYGMSAKTLEFHYGKHHKGYVDNLNKLTQDTELADKSLEDVIRTTYGDAAKVGIFNNAAQVWNHTFFWNSLKPGGGGVPTGDVAARINSAFGSYDEFKAQFKNAAATQFGSGWAWLVLEAGTLKVTKTANAENPLVHGQVPLLTIDVWEHAYYLDYQNRRPDFIDNFLNQLVNWDFVAKNLAAA | soluble
MNHMEILSFPAGPYQTNCYVVLSEESEGRRYASVIDPGLRAKELIDQYCEENRVEVVQVLLTHGHIDHCRDAAALANGWGVALQIHRYDEFFLDKGNGMSEDSRLLFHADAMNLPDSVSYLGDGDEVELGGQRFVVRHAPGHSPGCVLFVGKDFCFSGDVLFKGSIGRTDLAHSDPHAMSNSIKSVVLGLEDSLTILPGHGPATTMRAEKASNPYLRV | not soluble
MSLSDKTMTADEAVSRLRSGMTLGIGGWGSRRKPMALVRALLRSGITDLTVVSCGGPDVGMLAAAGRIRKLVAAFVTLDSIPLEPHYRAARERGALELMEIDEAMFLWGLRAAAGRLPFLPVRAGIGSDVMRVNPGLRTITSPYVDGETFVAMPALRLDAALVHLNRADRLGNGQYLGPDPYFDDLFCEAADTAYVSCERVVDTAELTKEAAPQTLLVKRHTVTGVVEAPNGADFTSCVPDYGRDEALQRYYATTPWPEFAERFLGGGEPAYRSAVQDWRKEREGHHHHHH | soluble
AKQQKHFVLVHGGCLGAWIWYKLKPLLESAGHKVTAVDLSAAGINPRRLDEIHTFRDYSEPLMEVMASIPPDEKVVLLGHSFGGMSLGLAMETYPEKISVAVFMSAMMPDPNHSLTYPFEKYNEKCPADMMLDSQFSTYGNPENPGMSMILGPQFMALKMFQNCSVEDLELAKMLTRPGSLFFQDLAKAKKFSTERYGSVKRAYIFCNEDKSFPVEFQKWFVESVGADKVKEIKEADAMGMLSQPREVCKCLLDISDS | soluble
MGSDKIHHHHHHMRIVAVTDIHGNMASTVALANILKKIEAELLLIAGDITHFSGGEIAKQILEPLLKLGVRVLAVMGNCDGKDVPKVLDELGINVHNARVEVKKVGVVGFGGSSVTPFSTIWEFSEEEIYSSLKRNYRSGDIVLTHAPPYRTRIDKTFSGIHAGSKGLRKFIEEEQPPICICGHIHEARGIDKIGETLVVNPGPLSRRYYAVIDSETWEVKLERL | not soluble
